Experimental findings from the RNAGym collection of RNA variant scans (doi:10.7554/elife.80360) are described below.

B1: Hairpin Ribozyme (parent)
chain: GUCCUCUUUCACGUGCGCGUGAAAGAGAGAAGUGAACCAGAGAAACACACGUUGUGGUAUAUUACCUGGUA

The data set covers variants of B1. As to the kind of experiment: self-cleavage, relative activity (ratio to wild type); higher = more cleavage; co-transcriptional.
Regarding GUCCUCUUUCACGUGCGCGUGAAAAAGAGAAGUGAACCAGAGAAACACACGUUGUGGUAUAUUAGCUGGUA [G25A C65G], the self-cleavage came to 0.215. On to GUCCUCUUUCACGUGCGCGUGAAACAGAGAAGUGAACCAGAGAAACACACGUUGUGGUAUAUUACGUGGUA [G25C C66G], for which the self-cleavage turned out to be 0.217. Turning to GUCCUCUUUCACGUGCGCGUGAAACAAAGAAGUGAACCAGAGAAACACACGUUGUGGUAUAUUACCUGGUA [G25C G27A], the self-cleavage amounted to 0.213. In the case of GUCCUCUUUCACGUGCGCGUGAAACAGAGAAGUGAACCAGAGAAACACACGUUGUGGUAUAUUUCCUGGUA [G25C A64U] it was 0.134; in that of GUCCUCUUUCACGUGCGCGUGAAACAGCGAAGUGAACCAGAGAAACACACGUUGUGGUAUAUUACCUGGUA [G25C A28C], 0.214; in that of GUCCUCUUUCACGUGCGCGUGAAAAAGAGAAGUGAACCAGAGAAACACACGUUGUGAUAUAUUACCUGGUA [G25A G57A], 0.205. In the case of GUCCUCUUUCACGUGCGCGUGAAAAAGAGAAGUGAACCAGAGAAACACACGUUGGGGUAUAUUACCUGGUA [G25A U55G] it was 0.159. In the case of GUCCUCUUUCACGUGCGCGUGAAAAAGAGAAGUGAACCAGAGAAACACACGUUGUGGCAUAUUACCUGGUA [G25A U58C] it was 0.581. On to GUCCUCUUUCACGUGCGCGUGAAACGGAGAAGUGAACCAGAGAAACACACGUUGUGGUAUAUUACCUGGUA [G25C A26G], for which the self-cleavage came out at 0.254. As for GUCCUCUUUCACGUGCGCGUGAAAAAGAGAAGUGAACCAGAGAAACACACGUUGUGGUAUAAUACCUGGUA [G25A U62A], the figure is 0.121; as for GUCCUCUUUCACGUGCGCGUGAAAAAGAGAAGUGAACCAGAGAAACACACGUUGUGGUAUACUACCUGGUA [G25A U62C], 0.224; as for GUCCUCUUUCACGUGCGCGUGAAAAAGAGAAGUGAACCAGAGAAACACACGUUGUGGUAUAUUACCUGGCA [G25A U70C], 0.588. GUCCUCUUUCACGUGCGCGUGAAAAAGAGAAGAGAACCAGAGAAACACACGUUGUGGUAUAUUACCUGGUA [G25A U33A]: the self-cleavage was 0.235. Regarding GUCCUCUUUCACGUGCGCGUGAAAAAGAGAAGCGAACCAGAGAAACACACGUUGUGGUAUAUUACCUGGUA [G25A U33C], the self-cleavage turned out to be 0.0884. For GUCCUCUUUCACGUGCGCGUGAAACAGAGACGUGAACCAGAGAAACACACGUUGUGGUAUAUUACCUGGUA [G25C A31C], the self-cleavage is 0.168. As for GUCCUCUUUCACGUGCGCGUGAAACAGAGAUGUGAACCAGAGAAACACACGUUGUGGUAUAUUACCUGGUA [G25C A31U], the figure is 0.143. As for GUCCUCUUUCACGUGCGCGUGAAACAGAGAAGUGAACCAGAGAAACACACAUUGUGGUAUAUUACCUGGUA [G25C G51A], the figure is 0.591; as for GUCCUCUUUCACGUGCGCGUGAAACAGAGAAGUGAACGAGAGAAACACACGUUGUGGUAUAUUACCUGGUA [G25C C38G], 0.15; as for GUCCUCUUUCACGUGCGCGUGAAACAGAGAAGUGAACCAGAGAAACACACGUUGUGGUAUAUUACCGGGUA [G25C U67G], 0.152.

With GUCCUCUUUCACGUGCGCGUGAAACAGAGAAGUGAACCAGAGAAACACACGUUGUGGUAUAUUACCAGGUA [G25C U67A], the self-cleavage was determined as 0.136. In the case of GUCCUCUUUCACGUGCGCGUGAAACAGAGAAGUGAACCAGAGAAACACACGUUGUGGUAUAUUACCUGGUA [G25C] it was 0.563; in that of GUCCUCUUUCACGUGCGCGUGAAAAAGAGAAGUGAACCAGAGAAACACACGUUGUGGUAUAUUACCUAGUA [G25A G68A], 0.164; in that of GUCCUCUUUCACGUGCGCGUGAAAAAGAGAAGUGAACCAGAGAAACACACGUUGUGGUAUAUUACCUUGUA [G25A G68U], 0.152. For the variant GUCCUCUUUCACGUGCGCGUGAAACAGAGAAGUGAACCAGAGAAACACACGUUGUGGUCUAUUACCUGGUA [G25C A59C], the self-cleavage amounted to 0.232. As for GUCCUCUUUCACGUGCGCGUGAAACAGAGAAGUGAACCAGAGAAACACACGUUGUGGUUUAUUACCUGGUA [G25C A59U], the figure is 0.134. For the variant GUCCUCUUUCACGUGCGCGUGAAACAGAGAAGUGAAGCAGAGAAACACACGUUGUGGUAUAUUACCUGGUA [G25C C37G], the self-cleavage came to 0.225.

As to GUCCUCUUUCACGUGCGCGUGAAAAAGAGAAGUGAACCAGAGAAACACACGUCGUGGUAUAUUACCUGGUA [G25A U53C], the self-cleavage worked out at 0.659.

Turning to GUCCUCUUUCACGUGCGCGUGAAAAAGAGAAGUGAACCAGAGAAACACACGUAGUGGUAUAUUACCUGGUA [G25A U53A], the self-cleavage amounted to 0.472. As for GUCCUCUUUCACGUGCGCGUGAAACAGAGAAGUGAACCAGAGAAACACACGUCGUGGUAUAUUACCUGGUA [G25C U53C], the self-cleavage came to 0.417.

Take GUCCUCUUUCACGUGCGCGUGAAACAGAGAAGUGAACCAGAGAAACACAAGUUGUGGUAUAUUACCUGGUA [G25C C50A]: the self-cleavage was 0.214.

For GUCCUCUUUCACGUGCGCGUGAAAAAGAGAAGUUAACCAGAGAAACACACGUUGUGGUAUAUUACCUGGUA [G25A G34U], the self-cleavage stood at 1.11. In the case of GUCCUCUUUCACGUGCGCGUGAAAAAGAGAAGUAAACCAGAGAAACACACGUUGUGGUAUAUUACCUGGUA [G25A G34A] it was 0.715.

Take GUCCUCUUUCACGUGCGCGUGAAAAAGAGAAGUGAACCAGAGAAAUACACGUUGUGGUAUAUUACCUGGUA [G25A C46U]: the self-cleavage amounted to 0.116. Turning to GUCCUCUUUCACGUGCGCGUGAAAAAGAGAAGUGAACCAGAAAAACACACGUUGUGGUAUAUUACCUGGUA [G25A G42A], the self-cleavage came out at 0.0699. On to GUCCUCUUUCACGUGCGCGUGAAACAGAGAAGUGAACCAGAGAAACACUCGUUGUGGUAUAUUACCUGGUA [G25C A49U], for which the self-cleavage amounted to 0.21. In the case of GUCCUCUUUCACGUGCGCGUGAAACAGAGAAGUGAACCAGAGAAACACGCGUUGUGGUAUAUUACCUGGUA [G25C A49G] it was 0.255. In the case of GUCCUCUUUCACGUGCGCGUGAAACAGAGAAGUGAACCAGAGAAACACACGUUGUGGAAUAUUACCUGGUA [G25C U58A] it was 0.308; in that of GUCCUCUUUCACGUGCGCGUGAAACAGAGAAGUGAACCAGAGAAACACACGUUGUGGCAUAUUACCUGGUA [G25C U58C], 0.559.
